Assay results as given in PMC12717009.
Each block holds one substance with its values, some of them ahead of it.

Assays:
[1] = target: NPCs isolated from an Mlp1ppxPrA pNup84–mCherry strain expressing Kap95–GFP (S. cerevisiae (endogenous) | S. cerevisiae) (UniProt Q02455); experiment: immunofluorescence of isolated NPCs on coverglass (confocal); isolated NPCs kept in PBS at 4 °C for 0, 24, 48 and 72 h, put on poly-L-lysine coverglass; anti-eGFP–AF647 signal at spots co-localized with anti-mCherry–AF568; single-exponential fit of the loss
[2] = target: isolated native yeast (wild type) nuclear pore complex (S. cerevisiae (endogenous)) (UniProt Q02455); experiment: affinity purification with mass spectrometry; whole NPCs captured through Mlp1-ppx-PrA from cryogenically lysed yeast (20 mM HEPES–KOH pH 7.4, 50 mM potassium acetate, 20 mM NaCl, 2 mM MgCl2, Triton X-100, Tween-20), native elution by protease cleavage; label-free quantitation; +CP (after isolation) compared with −CP (72 h in buffer) NPCs
[3] = target: Nup116FG (amino acids 1–725), hydrogel particles (S. cerevisiae) (UniProt Q02630); experiment: FG-hydrogel permeation assay (confocal fluorescence); preformed NupFG hydrogel particles (3.3 µM total NupFG, 5% FMAL-labelled, TBS); Kap95–AF568 in 150 mM NaCl, 100 mM Tris pH 8 added

half-life of dissociation (t1/2) [1]: 20.1 h
Substance: Kap95–GFP expressed under its native promoter (from UniProt Q06142 1-861) (natural protein)

stoichiometry N (Kap95 molecules per NPC) [2]: 15 to 20
Substance: endogenous Kap95 (from UniProt Q06142 1-861) (natural protein)

concentration of Kap95–AF568 in Nup116FG particles [3]: 1.58 µM
Substance: Kap95 labelled with Alexa Fluor 568 C5 maleimide (from UniProt Q06142 1-861) (natural protein)
